# Test: yeast display, Sf9 membrane polyspecificity reagent, FACS + sequencing; frameworks hold sequencing errors
# Procedure, shortened: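 Galactose-induced (36–48 hours) yeast carrying a synthetic nanobody display library were exposed to 10% biotinylated, detergent-solubilized Sf9 membrane reagent at 4 °C for 1 hour. FACS followed streptavidin microbead enrichment, using low and high (top ~1%) gates for expression (anti-HA) and reagent binding (streptavidin). Colony PCR, MiSeq 2 × 250 sequencing and CDR-length filtering followed. Labels for polyreactivity reflect the gate of origin.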
row,Sequence,polyreactivity (PSR sort gate)
1,QVQLVESGGGLVQAGGSLRLSCAASGFTFTYYTMGWYRQAPGKARELVAAISWSGGSTYYADSVKGRLTISRDNANNPVYLQMNSLKPEDTEVYYCNKVGIGYNTKRDYWGQGTQVTVSS,high polyreactivity
2,QVQLVESGGGLVQAGGSLRLSCAASGFTFTYYTMGWYRQAPGKERELVAGISRSGGSTYYADSVKGRFTISRDNAKNTVYLQMNSLKPEDTAVYYCAAVVRSYSDRYDYWGQGTQVTVSS,high polyreactivity
3,QVQLVESGGGLVQAGGSLRLSCAASGFTFTYYTMGWYRQAPGKESELVAAISWSGGRTYYADSVKGRFTISRDNAKNTVYLQMNSLKPEDTAVYYCAAVYSSYYSSSYGYWGQGTQVTVSS,high polyreactivity
4,QVQLVESGGGLVQAGGSLRLSCAASGFTFVDNAMGWYRQPPRKERELVAAISWTGVGSTYYADSVKGRFTISRDNAKNTDYLQMNSLKPEDTAVYYCAADGLSRGVPDEFDYWGQGTQVTVSS,low polyreactivity
5,QVQLVESGGGLVQAGGSLRLSCAASGFTFVFYAIGWYRQAPGKARELVAAISSRGGSTYYADSVKGRFTISRDNAKNTVYLQMNSLKPEDTAVYYCNVVSPYWTTYEEYYWGQGTQVTVSS,high polyreactivity
6,QVQLVESGGGLVQAGGSLRLSCAASGFTFVKNVMGWYRQAPGKERELVADITRRGGTTYYADSVKGRFTISRDNAKNTVYLQMNSLKPEDTAVYYCATEYWYGIYGYDYWGQGTQVTVSS,high polyreactivity
7,QVQLVESGGGLVQAGGSLRLSCAASGFTFVKYAMGWYRQAPGKERELVAVISRRGGSTYYADSVKGRFTISRDNAKNTVYLQMNSLKPEDTAVYYFAAKVALPRTQEWEYGYWGQGTQVTVSS,high polyreactivity
8,QVQLVESGGGLVQAGGSLRLSCAASGFTFVPYAMGWYRLAPGKEREFVATISWSAGRTYYADSVKGRFTISRDNAKNTVYLQMNSLKPEDTAVYYCNTASYRGYDYWGQGTQVTVSS,high polyreactivity
9,QVQLVESGGGLVQAGGSLRLSCAASGFTFVPYAMGWYRQAPGKERELVAAISSTGGSTYYADSVKGRFTISRDNAKNTVYLQMNSLKPEDTAVYYCAAKITRRYYPGYLFDSWGQGTQVTVSS,high polyreactivity
10,QVQLVESGGGLVQAGGSLRLSCAASGFTFVPYDMGWYRQAPGKERELVAAITDSSGSTHYADSVKGRFTFSRDNAKNTVYLQMNSLKPEDTAVYYCAADDSSRTTYDYWGQGTQVTVSS,low polyreactivity
11,QVQLVESGGGLVQAGGSLRLSCAASGFTFVRNAMGWYRQAPGKERELVAAISYRGGSTYYADSVKGRFTISRDNAKNTVYLQMNSLKPEDTAVYYCAAEAGYSSRRYYWGQGTQVTVSS,high polyreactivity
12,QVQLVESGGGLVQAGGSLRLSCAASGFTFVRNAMGWYRQAPGNERELVAALSTSAGSTYYADSVKGRFTISRDNAKNTVYLQMNSLKPEDTAVYYSAASASRYFVLAASGGIRYYYWGQGTQVTVSS,high polyreactivity
13,QVQLVESGGGLVQAGGSLRLSCAASGFTFVRYAMGWYRQAPGKERELVAAISRSSGSTYYADSVKGRFTISRDNAKNTVYLQMNSLKPEDTAVYYCARRYGRYSGTYDYWGQGTQVTVSS,high polyreactivity
14,QVQLVESGGGLVQAGGSLRLSCAASGFTFVRYVMGWYRQAPGKERELVAAISRSGGSTHYADSVKGRFTISRDNAKYTVYLQMNSLKPEDTAVYYCAAASPRWPGQGDYWGEGTQVTVSS,high polyreactivity
15,QVQLVESGGGLVQAGGSLRLSCAASGFTFVSYAMGWYRQAPGKERELVAAISKRGGSTSYADSVKGRFTISRDNAKNTVYFQMNSLKPEDTAVYYCYNRSYAWSPHVDYWGQGTQVTVSS,high polyreactivity
16,QVQLVESGGGLVQAGGSLRLSCAASGFTFVSYAMGWYRQAPGKERELVAAISRSGGRTYYADSVKGRFTISRDNAKNTVYLQMNSLKPEDSAVYYCAKAYRPFYSRVQDYDYWGQGTQVTVSS,high polyreactivity
17,QVQLVESGGGLVQAGGSLRLSCAASGFTFVTYAMGWSSQAPGKERELVATISWGVGGSYYADSVKGRFTISRDNAKNTVYLPMNSLKPEDTAVYYCNARHTWHQTYDYWGQGTQVTVSS,low polyreactivity
18,QVQLVESGGGLVQAGGSLRLSCAASGFTFVWYAMGWYRQAPGKEREFVAAINRSGGSTYYADSVKGRFTISRDNAKNTVYLQMNSLKPEDTAVYYCAAESWRGWSEFYYWGQGTQVTVSS,high polyreactivity
19,QVQLVESGGGLVQAGGSLRLSCAASGFTFVYNAMGWYRQAPGKERELVAAISSSGGRTYYADSVKGRFTISRDNAKNTVYLQMNSLKPEDTAVYYCAVEYPVYYYVEYDYWGQGTQVTVSS,high polyreactivity
20,QVQLVESGGGLVQAGGSLRLSCAASGFTFVYYAMGWYRQAPGKERELVAAISQSGSSTYYADSVKGRFTISRDNPKNTVYLQMNSLKPEDTAVYYCNVYYASRPTYDFGYWGQVTQVTVSS,high polyreactivity
21,QVQLVESGGGLVQAGGSLRLSCAASGFTFVYYAMGWYRQAPGKERELVAAITSADSTNYADSVKGRFTISRDNAKNTVYLQMNSLKPEDTAVYYCNAVYDYYRQSKWTMVYWGQGTQVTVSS,low polyreactivity
22,QVQLVESGGGLVQAGGSLRLSCAASGFTFVYYAMGWYRQAPGKERELVATISGNGGRTYYADSVKGRFTISRDNAKNTVYLQMNSLIPDDTAVYYCATDVGFGRKQRPHRPGYGYWGQGTLVTVSS,low polyreactivity

row,Sequence,polyreactivity (PSR sort gate)
1,QVQLVESGGGLVQAGGSLRLSCAASGFTFVYYAMGWYRQAPGKERELVPAISWNGGSTYYADSVKGRFTISRDNAKNTVYLQMNCLKPEDTAVYYCAAEYSYRLLQTFYYPYGYWGQGTQVTVSS,high polyreactivity
2,QVQLVESGGGLVQAGGSLRLSCAASGFTFVYYTMGWYRPAPWKERELVAAITWRGSTYYADSVKGRFTISRDNAKNTVYLQMNSLKPEDTAVYYCAARYRVLLRHREYDYWGQGTQVTVSS,high polyreactivity
3,QVQLVESGGGLVQAGGSLRLSCAASGFTFVYYVMGWYRQAPGKERELVAAINAGGGSTYYADSVKGRFTISRDNAKNTVYLQMNSLKPEDTAVYYCNARVRVRLGRKWSSYYYWGQGTQVTVSS,high polyreactivity
4,QVQLVESGGGLVQAGGSLRLSCAASGFTFWGYGMGWYRQAPGKERELVAAISGSGGSTYYADSVKGRFTISRDNAKNTVFLQMNSLKRKIPRSITALLFTVNGGGSRSHDYWAQGTQVTVSS,low polyreactivity
5,QVQLVESGGGLVQAGGSLRLSCAASGFTFWQYAMGSSRTAPGKERELVAAISSRGGSTYYADSVKGRFTISRDKAKNTVYLQMNSLKPEDTAVYYCNARANGFKDGYWGQGTQVTVSS,high polyreactivity
6,QVQLVESGGGLVQAGGSLRLSCAASGFTFWQYTMGWYRQAPGKERELVAAITSSGGSTYYADSVKGRFTISRDNAKNTVYLQMNSLKPEDTAVYYCAADGWGYSFQWQDHDYWGQGTQVTVSS,low polyreactivity
7,QVQLVESGGGLVQAGGSLRLSCAASGFTFWRYAMAWYRQAPWKERDLVAAISRTGGRTYYADSVKGRFTISRDNAKNTVYLQMNSLKPEDTAVDYCAAVKYETYRYNYDYWGQGTQVTVSS,high polyreactivity
8,QVQLVESGGGLVQAGGSLRLSCAASGFTFWRYTMGWYRQAPGKERELVAAINWSGGRTYYADSVKGRFTISRDNAKNTVYLQMNSLKPEDTAVYYCATGYSTSVGGSQGDSWGQGTQVTVSS,high polyreactivity
9,QVQLVESGGGLVQAGGSLRLSCAASGFTFWRYTMGWYRQAPGKERELVATIRRGTSTNYADSVKGRFTISRDNAKNTVYLQMNSLKPEDTAVYYCAADPWRYYVEYDYWGQGTQVTVSS,high polyreactivity
10,QVQLVESGGGLVQAGGSLRLSCAASGFTFWTYAMGWYRQAPGKERELVAAIDSGGSTYYADSVKGRFTISRDNAKNTVYLQMHSLKPEDTAVYYCNAGPSVTSGYDYDYWGQGTQVTVSS,low polyreactivity
11,QVQLVESGGGLVQAGGSLRLSCAASGFTFWTYPMGWYIQAPGKERELVAAIDSGGSTYYADSVKGRFTISRDNAKNTVYLQMNSLKPEDTAVYYCNAGPSVTSGYDYDYRGQGTQVTVSS,low polyreactivity
12,QVQLVESGGGLVQAGGSLRLSCAASGFTFWYNAMGWYRQAPGKERELVAAISKSGGSTYYADSVKGRFTISRDNAKNTVYLQMNILKPEDTAVYYCAARLPYNRYNYWGQGTQVTVSS,high polyreactivity
13,QVQLVESGGGLVQAGGSLRLSCAASGFTFWYYAMGWYRQAPGKERELVADISTRGGSTYYADSVKGRFTISRDNAKNTVYLQMNSLKPEDTAVYYCAAKYARNLAGDDPYDYWGQGTQVTVSS,high polyreactivity
14,QVQLVESGGGLVQAGGSLRLSCAASGFTFWYYAMGWYRQAPGKERELVARITSRGADTYADSVKGRFTISRDNAKNTVYLQMNSLKPEDTAVYDCNADIISVSVYYFIVEYDYWGQGTQVTVSS,low polyreactivity
15,QVQLVESGGGLVQAGGSLRLSCAASGFTFWYYAMGWYRQAPGKERELVATITSGGRTSYADSVKGRFTISRDNAKNTVYLQMNSLKPEDTAVYYCAAVARYTPGYGYWGQGTQVTVSS,high polyreactivity
16,QVQLVESGGGLVQAGGSLRLSCAASGFTFYAYAMGWYRQAPGKERELVAAISRTGGRTYYADSVKGRFTISRDNAKNTVYLQMNSLKPEDTAVYYCNRAGLHSTGYDYWGQGTQVTVSS,high polyreactivity
17,QVQLVESGGGLVQAGGSLRLSCAASGFTFYAYAMGWYRQAPGKERELVAAITWSGGRTYYADSVKGRFTISRDNAKNTVYLQMNSLKPEDTAVYYCAKRYWGQARYHTGHDYWGQGTQVTVSS,high polyreactivity
18,QVQLVESGGGLVQAGGSLRLSCAASGFTFYDKAMGWNRQAPGKERELVAAINCRSGSTYYADSVKGRFTISRDTAKNTVYLQMNSLKPEDTAVYYCASGLVFHYYAPKSYYLRYDYWGQGTQVTVSS,low polyreactivity
19,QVQLVESGGGLVQAGGSLRLSCAASGFTFYDYVMGWYRQAPGKERELVASISARTGSTYYADSVKGRFTISRDNAKNTVYLQMNSLQPEDTAVYYCAADDGQYYRTEYDYWGQGTQVTVSS,low polyreactivity
20,QVQLVESGGGLVQAGGSLRLSCAASGFTFYGNAMGWYRQAPGKERELVASISTYYADSVKGRFTISRDNAKNTVYLQMNSLKPEDTAVYYCAATHYDRTFYVIYDYWGQGTQVTVSS,low polyreactivity
21,QVQLVESGGGLVQAGGSLRLSCAASGFTFYGYAMGRYRQAPGKERELVAAITFRGDRTYYADSVKGRFTISRDNAKNTVYLQMNSLKPEDTAVYYCAAERPSGWYSDLSLYIGRRGYWGQGTQVTVSS,low polyreactivity
